The results in this text go back to the RNAGym collection of RNA variant scans (doi:10.1073/pnas.2313332121).

First the molecules themselves.
B1: TPR t1 (parent)
chain: GACCAAUCUGCCCUCAGAGCUCGAGAACAUCUUCGGAUGCAGAGGAGGCAGGCUUCGGUGGCGCGAUAGCGCCAACGUCCUCAACCUCCAAUGCAUCCCACCACAUGAUGAUGCCUGAAGAGCCUUGGUUUUUUG

The variants in the data set derive from B1. Kind of data set: polymerase ribozyme fitness, log enrichment relative to wild type (log ratio); higher = more active; in vitro selection for triplet polymerase activity. The method in brief: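 The heterodimeric triplet polymerase ribozyme's subunits were each mutagenized into PCR-built libraries and transcribed. Every library was selected once, in triplicate, by annealing with a biotinylated primer, the partner subunit and triplets, incubating frozen at −7 °C, gel-excising extended constructs, capturing on streptavidin beads and running RT-PCR. Input and output libraries were Illumina-sequenced, with genotypes kept only at ≥10 input reads and ≥1 read per output. Fitness, from inverse-variance-weighted replicate averages, is the base-2 logarithm of genotype enrichment over wild-type enrichment.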
With G45A C56G U78A G122A U129G, the “polymerase ribozyme fitness (log ratio)” value was -1.63.

Turning to A43U G58U U126G, the “polymerase ribozyme fitness (log ratio)” value was -3.62.

With A43U C123G, the “polymerase ribozyme fitness (log ratio)” value turned out to be 0.036.

In the case of G45U C73U C79A, the “polymerase ribozyme fitness (log ratio)” value was -2.93.

Consider G44A C88U, for which the “polymerase ribozyme fitness (log ratio)” value was -1.23.

On to G45C G47U A50G G57U, for which the “polymerase ribozyme fitness (log ratio)” value was -3.62.

For G45A C114U, the “polymerase ribozyme fitness (log ratio)” value was -2.37.

Regarding G44A C49U G71A G117C U133G, the “polymerase ribozyme fitness (log ratio)” value is -5.02.

As to G45A A50U, the “polymerase ribozyme fitness (log ratio)” value is -1.05.

Take G45U A84C C86A G117A: the “polymerase ribozyme fitness (log ratio)” value is -3.94.

With G44U G107A, the “polymerase ribozyme fitness (log ratio)” value was -6.9.

Take G44C U87G: the “polymerase ribozyme fitness (log ratio)” value was -0.724.

As to G44A G113A U130C, the “polymerase ribozyme fitness (log ratio)” value was -2.43.

Take G44A C56A C89U C97U U116A: the “polymerase ribozyme fitness (log ratio)” value is -3.63.

For G44U G69A C76A G120C, the “polymerase ribozyme fitness (log ratio)” value was -6.09.

For G45U C53A G61C, the “polymerase ribozyme fitness (log ratio)” value is -5.95.

Turning to G44A G71C C89U, the “polymerase ribozyme fitness (log ratio)” value was -1.03.

Regarding G44C C99U G110A, the “polymerase ribozyme fitness (log ratio)” value is -6.64.

Turning to A43U C86U, the “polymerase ribozyme fitness (log ratio)” value is -2.52.

Regarding G45C C72A, the “polymerase ribozyme fitness (log ratio)” value was -0.797.

Consider G44C G93A, for which the “polymerase ribozyme fitness (log ratio)” value was -0.685.

Regarding G44C G93U, the “polymerase ribozyme fitness (log ratio)” value is -2.85.

On to G45A G52A C89U U92A G120U, for which the “polymerase ribozyme fitness (log ratio)” value was -3.99.

As to G44U C89G, the “polymerase ribozyme fitness (log ratio)” value is -0.509.

With G44A A50G C73U, the “polymerase ribozyme fitness (log ratio)” value was -0.0837.

Regarding G45A A111G C114A, the “polymerase ribozyme fitness (log ratio)” value was -5.79.

In the case of G45C C79A A121G, the “polymerase ribozyme fitness (log ratio)” value is -0.868.

G44U A50U C101A C115A: the “polymerase ribozyme fitness (log ratio)” value was -2.8.

Consider A43U U59A U134G, for which the “polymerase ribozyme fitness (log ratio)” value is -1.56.

In the case of G45A A118G, the “polymerase ribozyme fitness (log ratio)” value is -1.02.

Regarding A43U C56A C85G U133A, the “polymerase ribozyme fitness (log ratio)” value was -4.39.

Turning to A43U G93C G117A, the “polymerase ribozyme fitness (log ratio)” value is -4.2.

In the case of G44U C56A G57A C104U U106G, the “polymerase ribozyme fitness (log ratio)” value is -2.38.

Turning to A43U C49G C72A C86A, the “polymerase ribozyme fitness (log ratio)” value is -2.29.

Turning to G45A A84C G120C G135A, the “polymerase ribozyme fitness (log ratio)” value is 0.21.

On to G44U G51A, for which the “polymerase ribozyme fitness (log ratio)” value is -5.35.

In the case of G44A C70U C89A A100U U133C, the “polymerase ribozyme fitness (log ratio)” value is -3.92.

As for G44C U59C, the “polymerase ribozyme fitness (log ratio)” value is -1.09.

For the variant G44A G60C, the “polymerase ribozyme fitness (log ratio)” value was 0.513.

With G45U C73U U87A A105U G135C, the “polymerase ribozyme fitness (log ratio)” value is -2.69.

Regarding A43U C114G G117C U126A, the “polymerase ribozyme fitness (log ratio)” value is -5.06.

In the case of G45A G61U C70U G110U U125C, the “polymerase ribozyme fitness (log ratio)” value is -3.2.

Take G45U G52A C62U U96G: the “polymerase ribozyme fitness (log ratio)” value was -2.4.

For the variant G45A U59G G60A A100U, the “polymerase ribozyme fitness (log ratio)” value was -2.28.

For G44A G51C, the “polymerase ribozyme fitness (log ratio)” value is -5.22.

On to G44A C72G, for which the “polymerase ribozyme fitness (log ratio)” value is -1.16.

In the case of G44A C72U, the “polymerase ribozyme fitness (log ratio)” value is -1.55.

For A43U G120C C124U, the “polymerase ribozyme fitness (log ratio)” value is -0.575.

As to G45U G47U G60A C98G, the “polymerase ribozyme fitness (log ratio)” value was -7.59.

Consider G45A A46U U55C C89U U131A, for which the “polymerase ribozyme fitness (log ratio)” value is -0.91.

On to G44C C88U, for which the “polymerase ribozyme fitness (log ratio)” value was -0.458.

As to G44A G61C U78C C79G U112G, the “polymerase ribozyme fitness (log ratio)” value is -3.26.

Take A43G G57U C88A C104A G120U: the “polymerase ribozyme fitness (log ratio)” value was -5.76.

G44U A46G G117A C124U: the “polymerase ribozyme fitness (log ratio)” value is -1.75.

Take A43U G52U A68G: the “polymerase ribozyme fitness (log ratio)” value is -4.56.

For the variant G44U U96C G120A G122A U129G, the “polymerase ribozyme fitness (log ratio)” value is -2.51.

Turning to G45U C89U U92A U106A U133G, the “polymerase ribozyme fitness (log ratio)” value is -3.32.

Regarding G45A C49A C94U G110A C124G, the “polymerase ribozyme fitness (log ratio)” value is -1.89.

For the variant G45A C49A G110U, the “polymerase ribozyme fitness (log ratio)” value is -2.18.

Regarding G44A C94U U126G, the “polymerase ribozyme fitness (log ratio)” value is -2.82.

With A43U G45U C115G, the “polymerase ribozyme fitness (log ratio)” value is -3.44.

For A43U G44C G63A, the “polymerase ribozyme fitness (log ratio)” value is -2.96.

On to G45C C86G C102U G120U, for which the “polymerase ribozyme fitness (log ratio)” value is -7.48.

For the variant G45U C72U G120A, the “polymerase ribozyme fitness (log ratio)” value was -0.418.

As for G45A A119G, the “polymerase ribozyme fitness (log ratio)” value is 0.105.

G44U G120U U130G: the “polymerase ribozyme fitness (log ratio)” value was -1.7.

Consider G44A G48C C56A, for which the “polymerase ribozyme fitness (log ratio)” value was -1.29.

Regarding G44U C56A, the “polymerase ribozyme fitness (log ratio)” value was -1.54.

Consider G44A A46U G47C A74G G93A, for which the “polymerase ribozyme fitness (log ratio)” value is -3.83.

In the case of G45A G69U C99U A111G, the “polymerase ribozyme fitness (log ratio)” value was -0.775.

As to G44C G69U U78C A95U C101U, the “polymerase ribozyme fitness (log ratio)” value was -0.81.

Take G45A C53G: the “polymerase ribozyme fitness (log ratio)” value is -0.662.

Consider G45C G51U G57U C99A G117C, for which the “polymerase ribozyme fitness (log ratio)” value was -7.29.

Consider A43G G44C A46U G63C G120A, for which the “polymerase ribozyme fitness (log ratio)” value was -5.64.

On to G44C G135U, for which the “polymerase ribozyme fitness (log ratio)” value is -1.88.

With G44U U59G G120A, the “polymerase ribozyme fitness (log ratio)” value is 0.601.

As for G44A G45U G61U A83C, the “polymerase ribozyme fitness (log ratio)” value was -1.59.

In the case of A43G U109A, the “polymerase ribozyme fitness (log ratio)” value is -6.81.

For the variant G44C U125A, the “polymerase ribozyme fitness (log ratio)” value is -1.22.

Turning to G44U G58C C62A, the “polymerase ribozyme fitness (log ratio)” value is -2.17.

As for A43U U54A G122U, the “polymerase ribozyme fitness (log ratio)” value was -2.82.

Regarding G45U C56G G77A C101U U112C, the “polymerase ribozyme fitness (log ratio)” value amounted to 0.372.

With G44C C102A, the “polymerase ribozyme fitness (log ratio)” value was -3.4.
